T1: GST-ActI-SIPA1L2-1-624 (rat, UniProt Q5JCS6 1-624)
T1 sequence: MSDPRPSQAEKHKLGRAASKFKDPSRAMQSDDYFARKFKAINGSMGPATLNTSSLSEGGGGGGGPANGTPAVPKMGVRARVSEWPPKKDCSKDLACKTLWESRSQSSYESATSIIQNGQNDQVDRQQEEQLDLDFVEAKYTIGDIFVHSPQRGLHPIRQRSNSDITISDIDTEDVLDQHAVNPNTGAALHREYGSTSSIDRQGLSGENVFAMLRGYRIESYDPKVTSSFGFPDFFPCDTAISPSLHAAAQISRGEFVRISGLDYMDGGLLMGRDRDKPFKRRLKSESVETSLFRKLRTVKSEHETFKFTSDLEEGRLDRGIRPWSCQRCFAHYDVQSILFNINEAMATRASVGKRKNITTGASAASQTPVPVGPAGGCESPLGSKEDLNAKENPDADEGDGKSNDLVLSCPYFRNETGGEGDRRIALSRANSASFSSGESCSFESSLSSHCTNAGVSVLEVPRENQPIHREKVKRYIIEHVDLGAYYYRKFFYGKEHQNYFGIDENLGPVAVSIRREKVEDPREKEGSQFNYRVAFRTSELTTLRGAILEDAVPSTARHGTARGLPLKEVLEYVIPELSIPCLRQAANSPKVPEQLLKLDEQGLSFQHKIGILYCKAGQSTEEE

T2: GST-SIPA1l2-86-99 (rat, UniProt Q5JCS6 86-99)
T2 chain: PKKDCSKDLACKTL

B1: MBP-TrkB-454-821 (domain or fragment)
chain: not shown

What was measured:
GST-ActI-SIPA1L2-1-624 = target: T1, GST-ActI-SIPA1L2-1-624; assay: pull-down
GST-SIPA1l2-86-99 = target: T2, GST-SIPA1l2-86-99; assay: pull-down

Binder	binding result (GST-ActI-SIPA1L2-1-624)	binding result (GST-SIPA1l2-86-99)
B1	binds	–
KLARHSKFGMKG [MBP-TrkB-454-465]	–	binds
